Results reported in publication PMC10499894.
“And” between values parts separate entries of the source, which are not always exact repeats. Identical values can stand only once.

Assays:
[1] = biological target: _(strep)RcpA, N-terminally strep-tagged RcpA (P. aeruginosa PAO1) (UniProt Q9HW96); test: pull-down; RcpA constructs with the strep tag at the N-terminus co-expressed with TadD in E. coli; single strep tag pulldown; SDS-PAGE, Western blot and negative stain EM 2D class averages
[2] = biological target: TadD, native sequence, tag not given (P. aeruginosa PAO1); test: pull-down; cysteine mutants of RcpA and TadD co-expressed in E. coli, single strep tag pulldown; RcpA-TadD particles counted on five negative stain EM micrographs per mutant (Laplacian-of-Gaussian blob detection), SDS-PAGE
[3] = biological target: TadD D139C (P. aeruginosa PAO1); test: as above
[4] = biological target: RcpA_(strep), C-terminally strep-tagged RcpA (P. aeruginosa PAO1) (UniProt Q9HW96); test: cryo-EM structure; RcpA_(strep)-TadD_(FLAG) complex co-expressed in E. coli, double pulldown (StrepTrap, ANTI-FLAG M2), 0.06% DDM; graphene oxide support and tilted collection; C13 map at 2.7 Å, focussed TadD map; on holey carbon grids TadD was stripped off
[5] = biological target: RcpA, endogenous in P. aeruginosa PAO1 (P. aeruginosa PAO1 (endogenous)) (UniProt Q9HW96); test: pull-down; P. aeruginosa PAO1 with chromosomal tadD_(strep), native expression levels; membranes extracted with DDM; Strep-Tactin Sepharose; eluate seen by anti-strep Western blot and negative stain EM 2D class averages

Question: For “_(strep)RcpA, N-terminally strep-tagged RcpA (from UniProt Q9HW96 1-416) (natural protein)”, which stoichiometry N [1] is on record?
Answer: 13 and 14

Question: What does the source list for “RcpA S415C (from UniProt Q9HW96 1-416) (natural protein)”?
Answer: RcpA-TadD complex relative to native levels [2]: 10%; RcpA-TadD particles relative to native levels [2]: 14%

Question: “RcpA L414C (from UniProt Q9HW96 1-416) (natural protein)” was tested. Which RcpA-TadD particles relative to native levels [2] did it give?
Answer: 9%

Question: Which RcpA-TadD particles relative to native TadD [3] does the source give for “RcpA, native sequence, in the cysteine cross-linking assay (tag not stated) (from UniProt Q9HW96 1-416) (natural protein)” here?
Answer: 2%

Question: “RcpA_(strep), C-terminally strep-tagged RcpA (from UniProt Q9HW96 1-416) (natural protein)” was tested. Which stoichiometry N [4] did it give?
Answer: 13 and 14

Question: “RcpA, endogenous in P. aeruginosa PAO1 (from UniProt Q9HW96 1-416) (natural protein)” was tested. Which stoichiometry N [5] did it give?
Answer: 13 and 14
